± gives the uncertainty stated by the source.
Experiment: self-splicing fitness, log relative to wild type (ln ratio); higher = more splicing; Tetrahymena group I intron in knt gene, E. coli kanamycin selection, DiMSum; sequences stand for … in CUCUCU…GGAGGGAAAAGUUAUCAGGCAUGCACCUGGUAGCUAGUCUUUAAACCAAUAGAUUGCAUCGGUUUAAAAGGCAAGACCGUCAAAUUGCGGGAAAGGGGUCAACAGCCGUUCAGUACCAAGUCUCAGGGGAAACUUUGAGAUGGCCUUGCAAAGGGUAUGGUAAUAAGCUGACGGACAUGGUCCUAACCACGCAGCCAAGUCCUAAGUCAACAGAUCUUCUGUUGAUAUGGAUGCAGUUCACAGACUAAAUGUCGGUCGGGGAAGAUGUAUUCUUCUCAUAAGAUAUAGUCGGACCUCUCCUUAAUGGGAGCUAGCGGAUGAAGUGAUGCAACACUGGAGCCGCUGGGAACUAAUUUGUAUGCGAAAGUAUAUUGAUUAGUUUUGGAGUACUCGUGGUCG
Summary of the method: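 Pooled colonies went to amplicon sequencing on an Illumina HiSeq 2500 after six replicate transformations. The plates were LB agar with 100 μg/mL carbenicillin, 50 μM IPTG and 0.2% rhamnose, with or without 25 μg/mL kanamycin, incubated overnight at 37°C or 30°C. The E. coli BL21(DE3) library had all eight P1ex-region intron nucleotides randomised, the intron placed in the knt kanamycin-resistance gene on pET-22b(+). DiMSum fitness is the error-weighted combination of replicate fold changes, kanamycin against none, normalised to wild type.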

| Sequence | self-splicing fitness (ln) (30 °C) | self-splicing fitness (ln) (37 °C) |
| --- | --- | --- |
| UCCCAGCAAUAUUACGAACA | -1.51 ± 0.13 | -0.139 ± 0.12 |
| UCCCAGCAAUAUUACGAAUG | -2.98 ± 0.15 | -2.61 ± 0.17 |
| UCCCAGCAAUAUUACGAGGC | -2.23 ± 0.14 | -0.738 ± 0.14 |
| UCCCAGCAAUAUUACGAGUU | -3.85 ± 0.2 | -2.45 ± 0.15 |
| UCCCAGCAAUAUUACGAUCC | -1.93 ± 0.41 | -1.58 ± 0.46 |
| UCCCAGCAAUAUUACGAUUA | -1.71 ± 0.12 | -1.36 ± 0.14 |
| UCCCAGCAAUAUUACGCACU | -1.64 ± 0.12 | -1.04 ± 0.14 |
| UCCCAGCAAUAUUACGCAUG | -4.28 ± 0.22 | -2.41 ± 0.19 |
| UCCCAGCAAUAUUACGCCAU | -3.09 ± 0.18 | -2.83 ± 0.38 |
| UCCCAGCAAUAUUACGCCUA | -1.41 ± 0.078 | -1.34 ± 0.08 |
| UCCCAGCAAUAUUACGCGCA | -0.296 ± 0.093 | -0.219 ± 0.089 |
| UCCCAGCAAUAUUACGCUCA | -1.48 ± 0.11 | -0.496 ± 0.11 |
| UCCCAGCAAUAUUACGCUUU | -2.7 ± 0.16 | -2 ± 0.15 |
| UCCCAGCAAUAUUACGGAAU | -3.64 ± 0.18 | -1.53 ± 0.12 |
| UCCCAGCAAUAUUACGGACG | -3.93 ± 0.21 | -1.97 ± 0.12 |
| UCCCAGCAAUAUUACGGAGG | -3.51 ± 0.14 | -2.23 ± 0.18 |
| UCCCAGCAAUAUUACGGAUC | -2.71 ± 0.13 | -1.64 ± 0.14 |
| UCCCAGCAAUAUUACGGGCG | -0.841 ± 0.058 | -0.455 ± 0.07 |
| UCCCAGCAAUAUUACGGUGA | -1.57 ± 0.11 | -1.02 ± 0.11 |
| UCCCAGCAAUAUUACGGUUU | -1.23 ± 0.061 | -0.274 ± 0.076 |
| UCCCAGCAAUAUUACGUAUA | -2.5 ± 0.1 | -1.33 ± 0.1 |
| UCCCAGCAAUAUUACGUCUC | -3.23 ± 0.22 | -2.89 ± 0.25 |
| UCCCAGCAAUAUUACGUGCU | -3.59 ± 0.2 | -2.92 ± 0.19 |
| UCCCAGCAAUAUUACGUGGU | -1.53 ± 0.069 | -0.339 ± 0.071 |
| UCCCAGCAAUAUUACGUUAG | -4.08 ± 0.19 | -2.78 ± 0.18 |

| Sequence | self-splicing fitness (ln) (30 °C) | self-splicing fitness (ln) (37 °C) |
| --- | --- | --- |
| UCCCAGCAAUAUUACGUUCG | -3.65 ± 0.2 | -2.96 ± 0.27 |
| UCCGAGCAAUAUUACGCAGC | -4.03 ± 0.35 | -2.51 ± 0.39 |
| UCCGAGCAAUAUUACGCCAU | -2.56 ± 0.28 | -3.16 ± 0.4 |
| UCCGAGCAAUAUUACGCGGA | -2.27 ± 0.3 | – |
| UCCGAGCAAUAUUACGCUUC | – | -2.37 ± 0.35 |
| UCCGAGCAAUAUUACGGGCA | -1.79 ± 0.12 | -0.787 ± 0.1 |
| UCCGAGCAAUAUUACGGGUG | -1.97 ± 0.089 | -1.66 ± 0.099 |
| UCCGAGCAAUAUUACGGUUG | -3.29 ± 0.26 | -3.07 ± 0.3 |
| UCCGAGCAAUAUUACGUAUC | -2.88 ± 0.25 | -2.07 ± 0.37 |
| UCCGAGCAAUAUUACGUCCU | -2.6 ± 0.28 | – |
| UCCGAGCAAUAUUACGUCUU | -3.54 ± 0.25 | -1.62 ± 0.2 |
| UCCGAGCAAUAUUACGUGUC | – | -2.64 ± 0.34 |
| UCCGAGCAAUAUUACGUUAU | -3.95 ± 0.21 | -1.93 ± 0.19 |
| UCCGAGCAAUAUUACGUUCC | -3.5 ± 0.25 | -3.16 ± 0.32 |
| UCCGAGCAAUAUUACGUUGA | -2.17 ± 0.097 | -0.915 ± 0.087 |
| UCCUAGCAAUAUUACGACCA | -0.552 ± 0.22 | -2.28 ± 0.35 |
| UCCUAGCAAUAUUACGAUGG | -3.64 ± 0.23 | -2.15 ± 0.21 |
| UCCUAGCAAUAUUACGAUUU | -2.16 ± 0.16 | -1.36 ± 0.21 |
| UCCUAGCAAUAUUACGCAUC | -2.3 ± 0.21 | -1.27 ± 0.22 |
| UCCUAGCAAUAUUACGCCUU | -2.98 ± 0.33 | -2.34 ± 0.35 |
| UCCUAGCAAUAUUACGCUCG | -3.13 ± 0.21 | – |
| UCCUAGCAAUAUUACGGAGU | -3.81 ± 0.22 | -1.3 ± 0.13 |
| UCCUAGCAAUAUUACGGCAU | -3.31 ± 0.17 | -2.2 ± 0.11 |
| UCCUAGCAAUAUUACGGCGA | -0.128 ± 0.092 | 0.153 ± 0.1 |
| UCCUAGCAAUAUUACGGGCG | -0.227 ± 0.093 | -0.227 ± 0.11 |

| Sequence | self-splicing fitness (ln) (30 °C) | self-splicing fitness (ln) (37 °C) |
| --- | --- | --- |
| UCCUAGCAAUAUUACGGGGU | -4.13 ± 0.29 | -2.65 ± 0.2 |
| UCCUAGCAAUAUUACGUCUG | -4.52 ± 0.41 | -3.05 ± 0.21 |
| UCCUAGCAAUAUUACGUGAA | -0.777 ± 0.078 | -0.552 ± 0.1 |
| UCCUAGCAAUAUUACGUGCC | -2.26 ± 0.33 | -2.02 ± 0.39 |
| UCCUAGCAAUAUUACGUUCU | -3.14 ± 0.14 | -2.51 ± 0.13 |
| UCCUAGCAAUAUUACGUUGG | -3.74 ± 0.27 | -2.35 ± 0.2 |
| UCCUAGCAAUAUUACGUUGU | – | -1.99 ± 0.29 |
| UCGAAGCAAUAUUACGACUA | -1.05 ± 0.16 | -0.97 ± 0.13 |
| UCGAAGCAAUAUUACGAGAG | -3.06 ± 0.43 | -1.91 ± 0.25 |
| UCGAAGCAAUAUUACGAGCA | -1.77 ± 0.14 | 0.162 ± 0.14 |
| UCGAAGCAAUAUUACGAGCG | -1.04 ± 0.078 | -0.114 ± 0.094 |
| UCGAAGCAAUAUUACGAUUA | -1.19 ± 0.12 | -0.794 ± 0.11 |
| UCGAAGCAAUAUUACGCAAC | -2.37 ± 0.42 | – |
| UCGAAGCAAUAUUACGCAGC | -2.71 ± 0.27 | -2.18 ± 0.23 |
| UCGAAGCAAUAUUACGCAUG | -1.2 ± 0.085 | -0.698 ± 0.1 |
| UCGAAGCAAUAUUACGCCAG | -2.24 ± 0.25 | -2.09 ± 0.42 |
| UCGAAGCAAUAUUACGCCCA | -1.84 ± 0.32 | -0.793 ± 0.25 |
| UCGAAGCAAUAUUACGCCUA | – | -1.71 ± 0.42 |
| UCGAAGCAAUAUUACGCGCG | -1.26 ± 0.1 | -0.735 ± 0.12 |
| UCGAAGCAAUAUUACGCUGU | -2.33 ± 0.21 | -2.06 ± 0.33 |
| UCGAAGCAAUAUUACGCUUC | -3.77 ± 0.25 | -2.38 ± 0.3 |
| UCGAAGCAAUAUUACGGCAA | -1.81 ± 0.19 | -1.72 ± 0.17 |
| UCGAAGCAAUAUUACGGCCG | -0.31 ± 0.18 | 0.0326 ± 0.34 |
| UCGAAGCAAUAUUACGGCGU | -0.22 ± 0.087 | -0.249 ± 0.12 |
| UCGAAGCAAUAUUACGGGCU | -4.18 ± 0.39 | -2.67 ± 0.35 |

| Sequence | self-splicing fitness (ln) (30 °C) | self-splicing fitness (ln) (37 °C) |
| --- | --- | --- |
| UCGAAGCAAUAUUACGGUAG | -1.4 ± 0.1 | -1.61 ± 0.11 |
| UCGAAGCAAUAUUACGGUCU | -2.6 ± 0.14 | -0.844 ± 0.13 |
| UCGAAGCAAUAUUACGGUUA | -0.579 ± 0.12 | -0.97 ± 0.097 |
| UCGAAGCAAUAUUACGUCAU | -2.62 ± 0.15 | -2.58 ± 0.21 |
| UCGAAGCAAUAUUACGUGCU | -3.75 ± 0.18 | -3.77 ± 0.31 |
| UCGAAGCAAUAUUACGUGGU | -3.51 ± 0.18 | -2.88 ± 0.24 |
| UCGAAGCAAUAUUACGUUGG | -2.99 ± 0.12 | -1.86 ± 0.15 |
| UCGAAGCAAUAUUACGUUGU | -2.09 ± 0.19 | -2.33 ± 0.2 |
| UCGCAGCAAUAUUACGAAGA | -2.23 ± 0.13 | -1.43 ± 0.15 |
| UCGCAGCAAUAUUACGAAGU | -3.51 ± 0.2 | -2.53 ± 0.15 |
| UCGCAGCAAUAUUACGAGGU | -3.14 ± 0.25 | -2.85 ± 0.19 |
| UCGCAGCAAUAUUACGAUCA | -1.27 ± 0.15 | -1.18 ± 0.15 |
| UCGCAGCAAUAUUACGCAAC | – | -2.8 ± 0.17 |
| UCGCAGCAAUAUUACGCACU | -2.21 ± 0.18 | -0.563 ± 0.2 |
| UCGCAGCAAUAUUACGCCAG | -2.63 ± 0.084 | -1.72 ± 0.1 |
| UCGCAGCAAUAUUACGCGCU | -1.23 ± 0.12 | -1.19 ± 0.21 |
| UCGCAGCAAUAUUACGCGUU | -4.2 ± 0.27 | -2.38 ± 0.13 |
| UCGCAGCAAUAUUACGCUAG | -4.54 ± 0.25 | -2.18 ± 0.2 |
| UCGCAGCAAUAUUACGCUGG | -1.76 ± 0.16 | -2 ± 0.21 |
| UCGCAGCAAUAUUACGCUUC | -1.8 ± 0.34 | -1.68 ± 0.44 |
| UCGCAGCAAUAUUACGCUUG | -1.93 ± 0.14 | -1.83 ± 0.15 |
| UCGCAGCAAUAUUACGGAAG | -2.74 ± 0.25 | -1.74 ± 0.22 |
| UCGCAGCAAUAUUACGGAGA | -2.75 ± 0.13 | -1.02 ± 0.1 |
